Assay results as given in the supplement of paper PMC7877785.
± gives the uncertainty stated by the source.

Assay: self-splicing fitness, log relative to wild type (ln ratio); higher = more splicing; Tetrahymena group I intron in knt gene, E. coli kanamycin selection, DiMSum; sequences stand for … in CUCUCU…GGAGGGAAAAGUUAUCAGGCAUGCACCUGGUAGCUAGUCUUUAAACCAAUAGAUUGCAUCGGUUUAAAAGGCAAGACCGUCAAAUUGCGGGAAAGGGGUCAACAGCCGUUCAGUACCAAGUCUCAGGGGAAACUUUGAGAUGGCCUUGCAAAGGGUAUGGUAAUAAGCUGACGGACAUGGUCCUAACCACGCAGCCAAGUCCUAAGUCAACAGAUCUUCUGUUGAUAUGGAUGCAGUUCACAGACUAAAUGUCGGUCGGGGAAGAUGUAUUCUUCUCAUAAGAUAUAGUCGGACCUCUCCUUAAUGGGAGCUAGCGGAUGAAGUGAUGCAACACUGGAGCCGCUGGGAACUAAUUUGUAUGCGAAAGUAUAUUGAUUAGUUUUGGAGUACUCGUGGUCG
How it was run: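 Library with all eight P1ex-region intron nucleotides randomised, intron inside the knt kanamycin-resistance gene on pET-22b(+), in E. coli BL21(DE3). Cells grew overnight at 37°C or 30°C on LB agar with or without 25 μg/mL kanamycin (plus 100 μg/mL carbenicillin, 50 μM IPTG, 0.2% rhamnose), in six replicate transformations. Pooled colonies were amplicon-sequenced on Illumina HiSeq 2500. DiMSum fitness is the error-weighted combination of wild-type-normalised replicate fold changes, kanamycin versus none.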

| Sequence | self-splicing fitness (ln) (30 °C) | self-splicing fitness (ln) (37 °C) |
| --- | --- | --- |
| GCCGAGCAAUAUUACGGACG | -2.44 ± 0.18 | -0.841 ± 0.2 |
| ACUGAGCAAUAUUACGUGCU | -3.84 ± 0.41 | -2.28 ± 0.27 |
| ACCGAGCAAUAUUACGACUU | -1.12 ± 0.087 | -0.353 ± 0.11 |
| AGAUAGCAAUAUUACGUUUA | -2.12 ± 0.13 | -1.43 ± 0.13 |
| AAGAAGCAAUAUUACGGUAU | -2.08 ± 0.073 | -0.974 ± 0.084 |
| GGAAAGCAAUAUUACGUGCG | -0.344 ± 0.11 | -0.596 ± 0.12 |
| AAUUAGCAAUAUUACGUGCC | -1.48 ± 0.082 | -0.857 ± 0.11 |
| UGAGAGCAAUAUUACGCCAC | -2.36 ± 0.31 | -1.1 ± 0.42 |
| GUAUAGCAAUAUUACGCUCA | – | -0.615 ± 0.36 |
| UUCGAGCAAUAUUACGGCUG | -2.58 ± 0.23 | -1.81 ± 0.22 |
| AAAAAGCAAUAUUACGGUUU | -0.478 ± 0.05 | -0.225 ± 0.064 |
| UGCAAGCAAUAUUACGCGCC | -1.18 ± 0.098 | -0.427 ± 0.11 |
| CGUAAGCAAUAUUACGGAAG | -2.64 ± 0.19 | -1.41 ± 0.17 |
| GUAUAGCAAUAUUACGACGU | -0.443 ± 0.069 | 0.436 ± 0.092 |
| ACAAAGCAAUAUUACGAAUC | -2.69 ± 0.19 | -1.66 ± 0.17 |
| AGCUAGCAAUAUUACGGAUU | -1.3 ± 0.097 | -1 ± 0.13 |
| UCAAAGCAAUAUUACGGGGC | -2.18 ± 0.16 | -2.14 ± 0.19 |
| CGCUAGCAAUAUUACGUAUA | -3.36 ± 0.15 | -2.55 ± 0.16 |
| GUUGAGCAAUAUUACGGAUC | -1.91 ± 0.14 | -1.16 ± 0.14 |
| AUUAAGCAAUAUUACGAGCC | – | -1.69 ± 0.28 |
| CACAAGCAAUAUUACGCAUU | -2.9 ± 0.096 | -2.5 ± 0.14 |
| ACUUAGCAAUAUUACGGUGC | -3.78 ± 0.24 | -1.06 ± 0.17 |
| CUAUAGCAAUAUUACGUGGU | -3.34 ± 0.23 | -2.76 ± 0.2 |
| GCCCAGCAAUAUUACGAAGU | -0.333 ± 0.054 | 0.22 ± 0.069 |
| AAUUAGCAAUAUUACGCUGG | -1.35 ± 0.17 | -1.01 ± 0.2 |
| GUGUAGCAAUAUUACGCAGU | -3.25 ± 0.21 | -2.46 ± 0.23 |

| Sequence | self-splicing fitness (ln) (30 °C) | self-splicing fitness (ln) (37 °C) |
| --- | --- | --- |
| ACUUAGCAAUAUUACGUAUU | -2.02 ± 0.12 | -2.26 ± 0.17 |
| GACAAGCAAUAUUACGGCCU | -0.429 ± 0.082 | -0.314 ± 0.1 |
| AGUUAGCAAUAUUACGAAGA | -1.18 ± 0.4 | -2.26 ± 0.34 |
| AACAAGCAAUAUUACGGAUU | -1.38 ± 0.071 | -0.641 ± 0.077 |
| UAUGAGCAAUAUUACGAGAG | -2.42 ± 0.43 | -2.72 ± 0.38 |
| GCUGAGCAAUAUUACGCAUA | -3.37 ± 0.3 | -1.82 ± 0.17 |
| GAUUAGCAAUAUUACGUUCC | -2.41 ± 0.3 | -1.59 ± 0.19 |
| CGUAAGCAAUAUUACGAAGG | -1.78 ± 0.12 | -1.16 ± 0.2 |
| AGCAAGCAAUAUUACGCGUA | -1.83 ± 0.083 | -0.167 ± 0.085 |
| CUGGAGCAAUAUUACGAGAC | – | -0.723 ± 0.29 |
| UCCGAGCAAUAUUACGUAUU | -1.95 ± 0.17 | -2.92 ± 0.43 |
| GAGAAGCAAUAUUACGUACA | -0.535 ± 0.066 | -0.692 ± 0.077 |
| GAGGAGCAAUAUUACGCUUU | – | -2.06 ± 0.41 |
| AAGGAGCAAUAUUACGAGUU | -3.53 ± 0.17 | -1.65 ± 0.12 |
| UCAAAGCAAUAUUACGUAAC | -3.86 ± 0.21 | -2.39 ± 0.27 |
| UACUAGCAAUAUUACGGCCU | -1.25 ± 0.095 | -0.333 ± 0.11 |
| AGGCAGCAAUAUUACGAUUG | -3.13 ± 0.17 | -2.4 ± 0.22 |
| UGGAAGCAAUAUUACGGCUU | -2.94 ± 0.32 | -1.73 ± 0.45 |
| UUAUAGCAAUAUUACGAUUU | -1.23 ± 0.11 | -0.501 ± 0.13 |
| GAUGAGCAAUAUUACGUAUA | – | -1.82 ± 0.35 |
| CUUCAGCAAUAUUACGGCUG | -3.75 ± 0.34 | -2.65 ± 0.47 |
| UAACAGCAAUAUUACGCGUU | -3.66 ± 0.1 | -3.01 ± 0.13 |
| GAAGAGCAAUAUUACGAGAU | -3.35 ± 0.23 | -2.08 ± 0.19 |
| AGGCAGCAAUAUUACGUUAU | -1.78 ± 0.08 | -1.78 ± 0.11 |
| AGAGAGCAAUAUUACGAUCC | -2.71 ± 0.24 | -1.5 ± 0.32 |
| AUGCAGCAAUAUUACGUACG | -2.15 ± 0.1 | -0.573 ± 0.12 |

| Sequence | self-splicing fitness (ln) (30 °C) | self-splicing fitness (ln) (37 °C) |
| --- | --- | --- |
| AUGUAGCAAUAUUACGGUCU | -0.562 ± 0.096 | -0.014 ± 0.1 |
| AUAUAGCAAUAUUACGGGUU | -3.43 ± 0.14 | -2.51 ± 0.14 |
| ACGAAGCAAUAUUACGAACG | -1.3 ± 0.091 | -0.288 ± 0.11 |
| UAUUAGCAAUAUUACGUGUA | -1.21 ± 0.16 | -0.828 ± 0.16 |
| AAUGAGCAAUAUUACGAACG | -2.46 ± 0.31 | -1.74 ± 0.3 |
| GAGAAGCAAUAUUACGCGCA | -0.304 ± 0.11 | 0.342 ± 0.12 |
| CGCCAGCAAUAUUACGAUAG | 0.428 ± 0.062 | 0.155 ± 0.081 |
| CACGAGCAAUAUUACGGCUG | -1.39 ± 0.089 | -0.237 ± 0.11 |
| UACCAGCAAUAUUACGUGAU | -1.93 ± 0.063 | -1.41 ± 0.074 |
| CGCUAGCAAUAUUACGGUCG | -2.53 ± 0.1 | -2.03 ± 0.13 |
| AGCUAGCAAUAUUACGAACC | -0.602 ± 0.14 | -0.082 ± 0.14 |
| GUUGAGCAAUAUUACGUAUU | -3.74 ± 0.47 | – |
| UGCCAGCAAUAUUACGUCAG | -2.49 ± 0.11 | -1.53 ± 0.14 |
| UCAUAGCAAUAUUACGGUUG | -3.07 ± 0.19 | -1.94 ± 0.17 |
| UUCCAGCAAUAUUACGUCGA | -0.549 ± 0.099 | 0.355 ± 0.11 |
| GUAGAGCAAUAUUACGGGAC | -1.46 ± 0.2 | -1.13 ± 0.15 |
| AGAGAGCAAUAUUACGUGGU | -3.49 ± 0.29 | -3.6 ± 0.37 |
| GAGUAGCAAUAUUACGGUUC | -1.02 ± 0.12 | -2.36 ± 0.3 |
| CGGAAGCAAUAUUACGUAUG | -1.49 ± 0.069 | -0.904 ± 0.083 |
| AUCCAGCAAUAUUACGUUUA | -1.81 ± 0.076 | -1.01 ± 0.081 |
| ACAAAGCAAUAUUACGCAAU | -1.87 ± 0.078 | -1.6 ± 0.092 |
| CGUCAGCAAUAUUACGGAUG | -3.63 ± 0.2 | -1.74 ± 0.14 |
| GCGCAGCAAUAUUACGGUAA | -1.55 ± 0.11 | 0.236 ± 0.11 |
| AAGCAGCAAUAUUACGUCGG | -2.24 ± 0.1 | -1.7 ± 0.17 |
| CCAAAGCAAUAUUACGGUUA | -2.46 ± 0.12 | -2.48 ± 0.14 |
